Tests used:
Assay in all cases: cleavage_in_vitro
[1] = biological target: T1, BamHI-HF E163A/E167T (Bacillus amyloliquefaciens) (UniProt P23940); conditions: NEB1, 37 C
T1 sequence: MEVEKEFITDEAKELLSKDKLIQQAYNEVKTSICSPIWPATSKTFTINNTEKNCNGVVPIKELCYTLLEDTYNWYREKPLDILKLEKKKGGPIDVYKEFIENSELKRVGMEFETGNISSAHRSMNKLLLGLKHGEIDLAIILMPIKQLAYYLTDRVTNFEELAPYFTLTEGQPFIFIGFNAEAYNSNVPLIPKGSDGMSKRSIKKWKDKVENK

[2] = test system: T2, BspQI (Bacillus sphaericus); conditions: NEB3, 50 C
T2 sequence: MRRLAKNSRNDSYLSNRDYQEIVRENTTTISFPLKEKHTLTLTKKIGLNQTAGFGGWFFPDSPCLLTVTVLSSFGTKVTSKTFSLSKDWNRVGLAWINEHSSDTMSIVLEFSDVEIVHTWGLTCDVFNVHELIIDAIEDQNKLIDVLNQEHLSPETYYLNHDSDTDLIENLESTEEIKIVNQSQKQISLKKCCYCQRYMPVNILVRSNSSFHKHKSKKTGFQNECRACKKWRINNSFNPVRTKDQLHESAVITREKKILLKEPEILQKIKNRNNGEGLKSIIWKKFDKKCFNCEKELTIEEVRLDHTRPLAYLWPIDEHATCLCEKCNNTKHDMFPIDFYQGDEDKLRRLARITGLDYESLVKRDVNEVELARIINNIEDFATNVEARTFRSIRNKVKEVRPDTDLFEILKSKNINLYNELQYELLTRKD

BstXI-HF N65A = conditions: NEB2, 55 C
[3] = biological target: T3, HindIII (Haemophilus influenzae Rd) (UniProt P43870); conditions: NEB2, 37 C
T3 sequence: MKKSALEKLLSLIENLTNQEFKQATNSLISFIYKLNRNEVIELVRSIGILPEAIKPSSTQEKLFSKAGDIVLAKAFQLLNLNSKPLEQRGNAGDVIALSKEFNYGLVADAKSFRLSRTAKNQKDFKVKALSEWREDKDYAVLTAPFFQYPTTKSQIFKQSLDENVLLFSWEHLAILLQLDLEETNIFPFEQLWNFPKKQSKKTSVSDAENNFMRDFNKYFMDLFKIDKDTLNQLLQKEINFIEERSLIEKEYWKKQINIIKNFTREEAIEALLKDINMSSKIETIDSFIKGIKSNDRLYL

[4] = biological target: T4, PstI (Providencia stuartii 164) (UniProt P00640); conditions: NEB3, 37 C
T4 sequence: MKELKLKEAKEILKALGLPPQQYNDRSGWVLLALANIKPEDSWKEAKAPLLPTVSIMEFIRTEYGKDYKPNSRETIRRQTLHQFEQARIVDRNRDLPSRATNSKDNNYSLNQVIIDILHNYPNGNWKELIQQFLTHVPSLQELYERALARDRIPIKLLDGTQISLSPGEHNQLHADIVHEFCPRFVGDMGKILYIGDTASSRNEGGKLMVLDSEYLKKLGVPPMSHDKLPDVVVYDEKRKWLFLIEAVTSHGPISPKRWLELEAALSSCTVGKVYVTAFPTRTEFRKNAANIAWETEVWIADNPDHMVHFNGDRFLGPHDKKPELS

[5] = test system: T5, SbfI-HF K251A (Streptomyces species Bf-61); conditions: NEB1, 37 C
T5 sequence: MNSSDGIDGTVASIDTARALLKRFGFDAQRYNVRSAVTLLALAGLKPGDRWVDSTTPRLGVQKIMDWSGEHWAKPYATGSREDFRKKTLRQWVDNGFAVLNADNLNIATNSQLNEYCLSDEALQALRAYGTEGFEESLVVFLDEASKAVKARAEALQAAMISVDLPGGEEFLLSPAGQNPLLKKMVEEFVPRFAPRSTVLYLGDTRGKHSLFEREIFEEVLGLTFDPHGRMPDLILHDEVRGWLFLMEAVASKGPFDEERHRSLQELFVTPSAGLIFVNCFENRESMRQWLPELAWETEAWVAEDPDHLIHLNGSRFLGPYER

[6] = test system: T6, SspI (Sphaerotilus species); conditions: NEB1, 37 C
T6 sequence: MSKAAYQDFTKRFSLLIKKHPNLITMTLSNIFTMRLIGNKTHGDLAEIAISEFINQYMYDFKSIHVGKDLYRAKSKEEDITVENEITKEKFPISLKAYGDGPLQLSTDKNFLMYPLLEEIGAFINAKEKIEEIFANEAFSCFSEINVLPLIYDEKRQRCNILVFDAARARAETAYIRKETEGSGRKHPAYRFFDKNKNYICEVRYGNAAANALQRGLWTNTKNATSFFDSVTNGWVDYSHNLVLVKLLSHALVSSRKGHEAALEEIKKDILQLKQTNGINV

lambda phage DNA
activity (fidelity index) [1]: > 4000 | activity (fidelity index) [2]: 32 | activity (fidelity index) (BstXI-HF N65A): > 250 | activity (fidelity index) [3]: 250 | activity (fidelity index) [4]: 120 | activity (fidelity index) [5]: 1000 | activity (fidelity index) [6]: 64
